Source: article PMC10984146
Values joined by “and” are separate entries in the source; they are usually repeats but may differ in a detail not shown here. Equal values may be shown once. Read-outs that look alike come from different tables or passages of the source.

Columns and labels:
[1] = molecular target: unclasped and untagged recombinant human integrin αVβ5 ectodomain (human) (UniProt P06756); experiment: fluorescence polarisation
[2] = molecular target: clasped and tagged recombinant human integrin αVβ5 ectodomain (human) (UniProt P06756); experiment: BLI
[3] = molecular target: reconstituted αVβ5/Hsp90α complex (human) (UniProt P06756); experiment: fluorescence polarisation
A488-irisin-His [4] = molecular target: A488-irisin-His (UniProt Q8NAU1); experiment: fluorescence polarisation
A488-irisin-His [5] = molecular target: A488-irisin-His (UniProt Q8NAU1); experiment: fluorescence polarisation; remark: listed apart in the source
A488-irisin-His [6] = molecular target: A488-irisin-His (UniProt Q8NAU1); experiment: MST
A488-FN10 (human) = experiment: fluorescence polarisation
A488-irisin-bac = A488-irisin-bac (UniProt Q8NAU1); experiment: fluorescence polarisation

With “FN10 (human fibronectin 10th FNIII domain, untagged) (domain or fragment)” the Kd [1] was 239 nM.
Substance “irisin-His (wild-type, glycosylated recombinant irisin from mammalian cells) (from UniProt Q8NAU1 1-191) (ligand)” has a Kd [2] of 212 nM, a Kd [1] of 35 nM and a Kd [3] of 52 nM.
With “irisin-bac (non-glycosylated irisin produced in bacteria) (from UniProt Q8NAU1 1-260) (ligand)” the Kd [1] was 294 nM and 299 nM.
Work on “reconstituted αVβ5/Hsp90α complex (from UniProt P06756 32-991; P18084 24-717; P07900 1-732)” yielded a Kd (A488-irisin-His [4]) of 37 nM and a Kd (A488-irisin-His [5]) of 31 nM.
Substance “unclasped and untagged recombinant human integrin αVβ5 ectodomain (from UniProt P06756 32-991; P18084 24-717) (receptor)” has a stoichiometry N (A488-irisin-His [6]) of 1, a Kd (A488-FN10 (human)) of 146 nM and a Kd (A488-irisin-His [4]) of 28 nM. The Kd (A488-irisin-bac) was 256 nM.
“unlabeled and untagged irisin (glycosylated, from mammalian cells) (from UniProt Q8NAU1 1-191) (ligand)” showed a Kd [3] of 50 nM.
Work on “αVβ5 ectodomain mutant E304R (β5) (from UniProt P06756 32-991; P18084 24-717) (receptor)” yielded a reduction of affinity for irisin compared to WT (A488-irisin-His [4]) of 80%.
Work on “αVβ5 ectodomain mutant R218E (β5) (from UniProt P06756 32-991; P18084 24-717) (receptor)” yielded a reduction of affinity for irisin compared to WT (A488-irisin-His [4]) of over 90%.
